These results are taken from publication PMC10022506 (Journal of Agricultural and Food Chemistry, 2023).

The target in one data set is T1, EcYfaU (Escherichia coli, UniProt P76469).
T1 sequence (P76469 1-267): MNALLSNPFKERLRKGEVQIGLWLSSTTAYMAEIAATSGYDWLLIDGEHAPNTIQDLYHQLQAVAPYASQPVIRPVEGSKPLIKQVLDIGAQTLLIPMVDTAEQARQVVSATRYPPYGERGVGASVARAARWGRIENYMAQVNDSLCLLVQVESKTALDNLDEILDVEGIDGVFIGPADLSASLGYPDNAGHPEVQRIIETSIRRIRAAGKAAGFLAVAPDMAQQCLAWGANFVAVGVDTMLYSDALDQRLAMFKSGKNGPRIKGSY
Kind of data set: aldol condensation, HPLC. The format is biochemical. The settings on record: co-substrate pyruvate; substrate inhibition at high concentration.

The subject of the next data set is C=O. Kind of data set: purified protein. The settings on record: apparent, 100 mM pyruvate, 1 mM Mg2+, 50 mM CHES pH 9.0, 45 °C.

With `C=O` [formaldehyde], at EcYfaU, the “aldol condensation, HPLC” value is given as “we measured the activity of EcYfaU at different substrate concentrations (Figure S7)”.
Broadly, the Km is the concentration of substrate that gives half-maximal velocity. One may read the kcat as the number of substrate molecules converted per active site and unit of time at saturation. As usually defined, the kcat/Km is the turnover number divided by the Michaelis constant. Take PaADL (Pseudomonas aeruginosa; L241A): in the data set with C=O, the Michaelis constant (Km) is reported as 65 ± 5.9 mM, the turnover number (kcat) was 7.2 s⁻¹ and the kcat/Km amounted to 110 M⁻¹ s⁻¹.
For “PaADL (Pseudomonas aeruginosa; L241A/V121A)” the same measures were 35 ± 4.4 mM, 6.63 s⁻¹ and 183 M⁻¹ s⁻¹.
Taken in the same sequence, the figures for PaADL (Pseudomonas aeruginosa; V121A) were 35 ± 4.9 mM, 5.8 s⁻¹ and 167 M⁻¹ s⁻¹.
